US20100254975A1 (Amgen, published 2010)
Substitutions are numbered along the chain they refer to.

B1: 26G2 (antibody, V domains shown)
VH: QVQLVESGGGLVKPGGSLRLSCAASGFTFSDYYMSWIRQAPGKGLEWVSYISSIGSAIHYADSVKGRFTISRDNAKNSLYLQMNSLRAEDTAVYYCAREYSSGWAYFDYWGQGTLVTVSS
VL: DIQMTQSPSSVSASVGDRVTITCRASQDISSWLAWYQQKPGTAPKVLIYSASSLQNGVPSRFSGRGSGTDFALTISSLQPEDFATYYCQQADSFPWTFGRGTKVEIK
notes: Fully human monoclonal from XenoMouse (human IgG2 or IgG4); kappa light chain; also called 26G2k; 26G2K
B2: 25C9 (antibody, V domains shown)
VH: B1 VH with S30N, I54S
VL: B1 VL with Q38R, T42K, N56S, R65S, A72T, R100Q
notes: Fully human monoclonal from XenoMouse (human IgG2 or IgG4); kappa light chain; also called 25C9k; 25C9K
B3: 27G8 (antibody, V domains shown)
VH: EVQLVESGGGLVQPGGSLRLSCAASGFTFSSYWMSWVRQASGKGLEWVANIKQDGSEKYYVDSVKGRFTISRDNAKNSLYLQMNSLRAEDTAVYYCAREGGYDWNYADYYGMDVWGQGTTVTVSS
VL: QSVLTQPPSVSEAPRQRVTISCSGSNSNIGNNPVNWYQLFPGRAPKLLIYHDDLLPSGVSDRFSGSRSGTSASLAISGLQSEDETDYYCTAWDDSLNGWVFGGGTKLTVL
notes: Fully human monoclonal from XenoMouse (human IgG2 or IgG4); lambda light chain; PE-conjugated in the cynomolgus study; also called 27G8L; 27G8H
B4: 1A10 (antibody, V domains shown)
VH: QVQLVQSGAEVKKPGASVKVSCKVSGYTLNDLSMHWVRQAPGKGLEWMGGFDPAEGKIISAQKFQDRVTMTDDTSTDTAYMELSSLRSEDSAVYYCATLDFSSWFDPWGQGTLVTVSS
VL: DIQMTQSPSSVSASVGDRVTITCRASQGVSSWLAWYQQKPGMAPKLLIYAASILQSGVPSRFSGSGSGTDFTLTISSLQPEDFATYYCQQANSFPWTFGQGTKVEIK
notes: Fully human monoclonal from XenoMouse XG2kl or XG4kl mice (human IgG2 or IgG4); kappa light chain; also called 1A10K; 1A10H
B5: 3A5 (antibody, V domains shown)
VH: B4 VH
VL: B4 VL with S30I, K103N
notes: Fully human monoclonal from XenoMouse (human IgG2 or IgG4); kappa light chain; also called 3A5K; 3A5H
B6: 19G6 (antibody, V domains shown)
VH: QVQLVESGGDLVKPGGSLRLSCAASGFTFSDYYMSWIRQAPGKGLEWISYISSSGSTMYYADSVKGRFTISRVNAKNSLYLQMNSLRAEDTAVYYCARDRSSGLVSFDYWGQGTLVTVSS
VL: DIQMTQSPSSLSASVGDRVTISCQASQDINTYLNWYQQKPGKVPKLLIYDASNLETGVPSRFSGSGSGTDFTFTISGLQPEDIATYYCQQFDNLPITFGQGTRLEIK
notes: Fully human monoclonal from XenoMouse (human IgG2 or IgG4); kappa light chain; also called 19G6K; 19G6H
B7: 22B2 (antibody, V domains shown)
VH: EVQLVQSGAEVKEPGESLKISCKGSGYIFTSYWIAWVRQLPGKGLEWMGIIDPNDSDTRYSPSFQGQVTISADKSIHTAYLQWSSLKASDTAMYYCATHRLWLGTLPGGFYIWGQGTMVTVSS
VL: DVQMTQSPSSLSASVGDRVTITCQASQDITDYLNWYQQKPGKAPKLLIYDTSNLEAGVPSRFSGSGSGTDFTFTISSLQPEDIATYYCQQYDILPYSFGQGTDLEIK
notes: Fully human monoclonal from XenoMouse (human IgG2 or IgG4); kappa light chain; also called 22B2K; 22B2H
B8: 26H3 (antibody, V domains shown)
VH: EVQLVQSGAEVKKPGESLKISCKGSGYSFTGYWIGWVRQMPGKGLEWMGIIYPYDSDTRYSPSFQGQVTISADKSINTAYLQWSSLKASDTAMFYCASHRLWLGEFPGPLNIWGQGTMVTVSS
VL: B7 VL with V2I, T30S, D31N, T51A, A56T, S76N, Y87F, I93N, Y96C, D103K
notes: Fully human monoclonal from XenoMouse (human IgG2 or IgG4); kappa light chain; also called 26H3K; 26H3H

How the values were obtained:
human alpha4beta7 [1] = target: T1, human alpha4beta7 (human, UniProt P13612 34-1032; P26010 20-798); test: FACS, biotinylated antibody on human CD4+CD45RA- memory T cells
T1 construct: whole, on cells; also called a4b7; wt
T1 sequence (P13612 34-1032, chain 1 of 2): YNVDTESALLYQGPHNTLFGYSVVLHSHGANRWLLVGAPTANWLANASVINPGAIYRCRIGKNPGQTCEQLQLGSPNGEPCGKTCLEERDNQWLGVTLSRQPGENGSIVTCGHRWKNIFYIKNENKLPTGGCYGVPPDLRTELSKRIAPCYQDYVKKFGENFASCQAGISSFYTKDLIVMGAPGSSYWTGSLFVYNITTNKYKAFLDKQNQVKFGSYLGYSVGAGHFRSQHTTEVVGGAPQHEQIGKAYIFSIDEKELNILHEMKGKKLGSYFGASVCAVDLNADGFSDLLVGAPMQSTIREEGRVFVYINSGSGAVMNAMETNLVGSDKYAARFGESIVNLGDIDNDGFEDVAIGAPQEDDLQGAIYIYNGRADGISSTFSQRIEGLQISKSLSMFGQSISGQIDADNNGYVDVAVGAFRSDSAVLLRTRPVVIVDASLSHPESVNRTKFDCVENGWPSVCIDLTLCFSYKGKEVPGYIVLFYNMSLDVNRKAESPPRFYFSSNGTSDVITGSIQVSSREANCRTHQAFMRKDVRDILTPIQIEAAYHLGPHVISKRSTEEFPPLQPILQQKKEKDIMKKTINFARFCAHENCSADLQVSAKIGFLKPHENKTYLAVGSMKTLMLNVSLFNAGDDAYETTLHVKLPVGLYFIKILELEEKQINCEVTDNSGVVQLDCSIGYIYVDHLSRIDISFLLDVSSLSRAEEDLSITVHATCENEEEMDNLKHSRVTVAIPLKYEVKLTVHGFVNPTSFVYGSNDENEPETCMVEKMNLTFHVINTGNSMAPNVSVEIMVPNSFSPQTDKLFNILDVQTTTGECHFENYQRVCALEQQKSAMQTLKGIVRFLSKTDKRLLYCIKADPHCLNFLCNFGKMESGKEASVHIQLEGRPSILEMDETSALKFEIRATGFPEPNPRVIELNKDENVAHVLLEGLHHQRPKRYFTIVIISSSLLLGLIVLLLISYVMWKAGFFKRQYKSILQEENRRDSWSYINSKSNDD
T1 sequence (P26010 20-798, chain 2 of 2): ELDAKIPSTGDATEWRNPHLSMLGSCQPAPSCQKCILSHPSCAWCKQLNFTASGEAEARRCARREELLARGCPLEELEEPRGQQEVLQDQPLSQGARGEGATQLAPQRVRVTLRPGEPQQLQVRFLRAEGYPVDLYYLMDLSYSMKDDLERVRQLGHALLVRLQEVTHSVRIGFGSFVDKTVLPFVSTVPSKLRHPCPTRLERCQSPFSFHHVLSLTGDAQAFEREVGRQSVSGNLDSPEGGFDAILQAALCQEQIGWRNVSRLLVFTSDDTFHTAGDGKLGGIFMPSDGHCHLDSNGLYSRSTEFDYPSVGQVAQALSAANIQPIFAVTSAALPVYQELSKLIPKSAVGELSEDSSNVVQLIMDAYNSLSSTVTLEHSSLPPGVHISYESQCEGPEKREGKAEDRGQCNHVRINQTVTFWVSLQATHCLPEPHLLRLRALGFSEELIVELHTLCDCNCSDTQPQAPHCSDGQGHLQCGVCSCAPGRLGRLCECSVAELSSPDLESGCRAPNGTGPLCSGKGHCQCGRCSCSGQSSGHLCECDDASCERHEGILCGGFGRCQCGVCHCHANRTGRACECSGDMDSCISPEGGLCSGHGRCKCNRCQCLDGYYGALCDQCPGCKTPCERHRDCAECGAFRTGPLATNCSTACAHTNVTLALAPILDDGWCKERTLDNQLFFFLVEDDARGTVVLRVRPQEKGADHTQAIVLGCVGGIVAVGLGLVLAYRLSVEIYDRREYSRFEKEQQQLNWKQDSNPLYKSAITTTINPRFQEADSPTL
Experimental: Human peripheral blood mononuclear cells (PBMC; fresh or frozen and thawed, for example in phosphate buffered saline with 2% FBS) are washed and resuspended in HEPES buffer (30 mM HEPES+[…]) with 1% BSA, with or without 1 mM MnCl₂ (depending on the experiment; Mn²⁺ is necessary for MAdCAM-1 binding) and plated into 96 well plates (10⁶cells/well). Cells are incubated with 10 microG/ml human IgG for 30 minutes on ice to block nonspecific binding. Cells are then incubated with serial dilutions of biotinylated anti-alpha4beta7 antibodies in 96 well plates for one hour on ice, followed by addition of 1:100 dilution of streptavidin-phycoerythrin (PE; Jackson ImmunoResearch Laboratories Inc., West Grove, Pa.), 4 microL CD3-Pacific Blue, CD4-PerCP-Cy5.5 and CD45RA-fluorescein isothiocyanate (FITC) (BD Biosciences, San Jose Calif.) for a final volume of 100 microL, and incubated for another hour on ice. Cells were washed twice with HEPES buffer (with or without MnCl₂, correspondingly) and then fixed in 200 microL HEPES buffer plus 0.5% paraformaldehyde (again, with or without MnCl₂, correspondingly). The percentage of positive alpha4beta7 antibody binding CD4+CD45RA-memory T cells is determined using a fluorescence activated cell sorter (FACS), for example, a BD™ LSR II benchtop flow cytometer (BD Biosciences, San Jose Calif.).

human alpha4beta7 [2] = target: T1, human alpha4beta7; test: cell-based or functional assay
human alpha4beta7 [3] = target: T1, human alpha4beta7; test: FACS on transfected 293 cells, 1 microG/ml, PE anti-human IgG
Excerpt: Point mutant constructs representing amino acid altering SNPs (a4b7(E97V); a4b7(R213S); a4b7(G629S; a4(V824A)b7; a4(Q878R)b7) in the extracellular domains of both alpha4 and beta7 were generated. Each point mutant construct was transfected to 293 cells along with the wild-type partner expression construct. Transfected 293 cells were first stained with 1 microG/ml of human IgG or anti-alpha4beta7 antibody, washed with PBS, and the stained with phycoerytherin conjugated secondary antibody goat-anti human IgG. After washing with PBS, cells were analyzed by fluorescence activated cell sorting, for example, with a FACSCalibur™ (BD Biosciences, San Jose Calif.).

a4b7(E97V) (human) = a4b7(E97V) (human) (UniProt P13612); test: as above
a4b7(E97V) (human), sequence (P13612 34-1032, chain 1 of 2): as the sequence (P13612 34-1032, chain 1 of 2) above
a4b7(E97V) (human), sequence (P26010 20-798 E97V, chain 2 of 2, further chain): as the sequence (P26010 20-798, chain 2 of 2) above, with E78V counted along it

a4b7(R213S) (human) = a4b7(R213S) (human) (UniProt P13612); test: as above
a4b7(R213S) (human), sequence (P13612 34-1032, chain 1 of 2): as the sequence (P13612 34-1032, chain 1 of 2) above
a4b7(R213S) (human), sequence (P26010 20-798 R213S, chain 2 of 2, further chain): as the sequence (P26010 20-798, chain 2 of 2) above, with R194S counted along it

a4(V824A)b7 (human) = a4(V824A)b7 (human) (UniProt P13612); test: as above
a4(V824A)b7 (human), sequence (P13612 34-1032 V824A, chain 1 of 2): as the sequence (P13612 34-1032, chain 1 of 2) above, with V791A counted along it
a4(V824A)b7 (human), sequence (P26010 20-798, chain 2 of 2, further chain): as the sequence (P26010 20-798, chain 2 of 2) above

a4(Q878R)b7 (human) = a4(Q878R)b7 (human) (UniProt P13612); test: as above
a4(Q878R)b7 (human), sequence (P13612 34-1032, chain 1 of 2): as the sequence (P13612 34-1032, chain 1 of 2) above
a4(Q878R)b7 (human), sequence (P26010 20-798, chain 2 of 2, further chain): as the sequence (P26010 20-798, chain 2 of 2) above

a4b7(G629S) (human) = a4b7(G629S) (human) (UniProt P13612); test: as above
a4b7(G629S) (human), sequence (P13612 34-1032, chain 1 of 2): as the sequence (P13612 34-1032, chain 1 of 2) above
a4b7(G629S) (human), sequence (P26010 20-798 G629S, chain 2 of 2, further chain): as the sequence (P26010 20-798, chain 2 of 2) above, with G610S counted along it

human alpha4beta7 [4] = target: T1, human alpha4beta7; test: FACS competition, blocks biotinylated MAdCAM-1-Fc binding to human CD4+CD45RA- memory T cells
Experimental: PBMC (fresh or frozen as described previously) are washed and resuspended in HEPES buffer (30 mM HEPES+[…]) with 1% BSA and 1 mM MnCl. to a final concentration of 10⁷cells/ml. Cells are blocked as described previously; after blocking, cells are incubated with a serial dilution of anti-alpha4beta7 antibody (or appropriate control) in 96 well plates for 30 minutes on ice, and then with 0.3 microG/ml biotinylated MAdCAM-1-Fc protein for another one hour.
After two washes in HEPES buffer with 1 mM MnCl, cells are treated with 1:100 dilution of streptavidin-PE, 4 microL CD3-Pacific Blue, CD4-PerCP-Cy5.5 and CD45RA-FITC as described previously, in a final volume of 100 microL. After one hour incubation on ice, cells are washed twice with HEPES buffer with 1 mM MnCl and then fixed in 200 microL buffer plus 0.5% paraformaldehyde. The percentage of positive MAdCAM-1-Fc binding CD4+CD45RA-memory T cells is determined by fluorescence activated cell sorter (FACS) analysis, as described previously.

Row | Binder | EC50 (human alpha4beta7 [1]) [ng/mL] | HUT78 Adhesion IC50 (human alpha4beta7 [2]) [ng/mL] | fluorescence staining intensity (geometric mean) (human alpha4beta7 [3]) | fluorescence staining intensity (geometric mean) (a4b7(E97V) (human)) | fluorescence staining intensity (geometric mean) (a4b7(R213S) (human)) | fluorescence staining intensity (geometric mean) (a4(V824A)b7 (human)) | fluorescence staining intensity (geometric mean) (a4(Q878R)b7 (human)) | fluorescence staining intensity (geometric mean) (a4b7(G629S) (human)) | IC50 (human alpha4beta7 [4]) [ng/mL]
1 | B1 | 32.6 | 6.9 | 99 | 113 | 38 | 86 | 58 | 64 | 99.6
2 | B2 |  | 13.7 | 96 | 106 | 33 | 77 | 51 | 59 | 77.6
3 | B3 | 6.3 | 14.9 | 102 | 116 | 59 | 88 | 58 | 68 | 8.7
4 | B4 | 4.9 | 6.1 | 122 | 135 | 31 | 102 | 70 | 80 | 6.2
5 | B5 | 5.6 | 7.5 | 124 | 135 | 31 | 110 | 71 | 80 | 6.2
6 | B6 | 32.9 | 12.2 | 94 | 108 | 46 | 67 | 46 | 59 | 103
7 | B7 | 5.1 | 3.7 | 97 | 108 | 58 | 85 | 58 | 65 | 23.2
8 | B8 | 9.3 | 8.9 | 93 |  |  |  |  |  | 14.1
